Reference: US20230357447A1 (JANUX THERAPEUTICS, published 2023)

How the values were obtained:
[1] = molecular target: T1, Anti-CD28 scFv (VH-linker 1-VL) (biotinylated for capture on neutravidin plates); assay: phage ELISA, scFv captured on plate;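 also: crude clonal phage supernatants added to wells preincubated with soluble CD28 or with blocking buffer only, bound phage read out by HRP-linked anti-M13 antibody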
Experimental: (§1) Clonal phage were harvested as crude supernatants and screened via standard enzyme linked immunosorbent assays (ELISAs). […] Prior to the addition of clonal phage, wells were incubated with blocking buffer and CD28 soluble protein or blocking buffer alone. Without washing or aspirating, clonal phage supernatants were then added to the wells and incubated for a short time. Wells were then washed followed by detection of bound phage using a horse radish peroxidase conjugated anti-M13 antibody.

[2] = molecular target: T1, Anti-CD28 scFv (VH-linker 1-VL); assay: phage ELISA, scFv captured on plate, competitor soluble CD28;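 also: crude clonal phage supernatants added to wells pre-incubated with soluble CD28 or with blocking buffer only as control, bound phage read out with HRP-linked anti-M13 antibody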
Experimental: as §1

T1 sequence (scFv, as listed by the source): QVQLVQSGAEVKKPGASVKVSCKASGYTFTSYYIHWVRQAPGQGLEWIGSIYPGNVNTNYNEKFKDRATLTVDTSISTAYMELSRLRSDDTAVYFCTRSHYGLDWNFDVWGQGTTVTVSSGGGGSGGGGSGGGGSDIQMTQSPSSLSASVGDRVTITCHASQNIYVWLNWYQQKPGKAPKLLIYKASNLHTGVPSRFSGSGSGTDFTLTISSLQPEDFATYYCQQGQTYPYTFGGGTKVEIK

Binder | Phage binding ELISA CD28 scFv signal [1] | Phage binding ELISA CD28 scFv signal in presence of CD28 [2]
MDWCPRYLWFECFS [Phage-117] | 2.46 | 0.235
MDWCPRHLWDECFF [Phage-118] | 2.46 | 0.663
MDWCPRFLWDECFF [Phage-133] | 2.28 | 0.246
MDWCPRHLWDLCFF [Phage-153] | 1.4 | 0.182
MDWCPRHLWDQCFA [Phage-161] | 1.12 | 0.144
MDWCPRHLWDLCFA [Phage-166] | 0.925 | 0.096
MDWCPRYLWHMCYS [Phage-119] | 2.42 | 1.17
MDWCPRDLWHACFS [Phage-120] | 2.41 | 0.173
MDWCPRDLWHVCFF [Phage-121] | 2.41 | 0.268
LDWCPRDLWHVCFF [Phage-178] | 0.61 | 0.105
MDWCPRDLWDQCYA [Phage-122] | 2.41 | 0.201
MDWCPIHLWNECFA [Phage-123] | 2.4 | 0.203
MDWCPRPLWDMCFF [Phage-124] | 2.4 | 0.138
MDWCPVSLWHVCFY [Phage-125] | 2.4 | 0.409
MDWCPRFLWNECFN [Phage-126] | 2.4 | 0.503
MDWCPRALWNECFA [Phage-127] | 2.38 | 0.375
MDWCPRDLWIECFF [Phage-128] | 2.37 | 0.137
MDWCPSYLWTVCFA [Phage-129] | 2.34 | 0.096
MDWCPRYLWDACFF [Phage-130] | 2.34 | 0.168
MDWCPRSLWIYCFN [Phage-131] | 2.34 | 0.401
MDWCPTYLWFECFN [Phage-132] | 2.33 | 0.224
MDWCPSYLWHECFA [Phage-134] | 2.28 | 0.198
MDWCPKFLWHECFS [Phage-135] | 2.28 | 0.142
MHWCPIYLWDECFN [Phage-136] | 2.23 | 0.193
MHWCPRYLWDECFN [Phage-180] | 0.55 | 0.127
MDWCPRYLWHECFH [Phage-137] | 2.19 | 0.308

Binder | Phage binding ELISA CD28 scFv signal [1] | Phage binding ELISA CD28 scFv signal in presence of CD28 [2]
MDWCPTNLWHECFA [Phage-138] | 2.16 | 0.096
MDWCPRDLWNVCFA [Phage-154] | 1.38 | 0.145
MDWCPRDLWDVCFA [Phage-139] | 2.16 | 0.28
MDWCPRDLWAVCFA [Phage-149] | 1.67 | 0.089
MDWCPRDLWNVCFN [Phage-169] | 0.74 | 0.108
MDWCPMDLWDVCFN [Phage-140] | 2.15 | 0.263
MDWCPRSLWNVCFF [Phage-141] | 2.13 | 0.356
MDWCPVILWDFCFN [Phage-142] | 2.03 | 0.173
LDWCPLNLWDLCYF [Phage-143] | 2.03 | 0.095
MDWCPRHLWYACFN [Phage-144] | 2.01 | 0.159
MDWCPKHLWIECFA [Phage-145] | 1.98 | 0.132
MDWCPRHLWSECFY [Phage-146] | 1.92 | 0.199
MHWCPRDLWVVCFN [Phage-147] | 1.83 | 0.112
MHWCPEYLWNECFA [Phage-148] | 1.69 | 0.092
MDWCPRHLWNVCFS [Phage-150] | 1.61 | 0.176
MDWCPRHMWNVCFS [Phage-204] | 2.25 | 0.13
MDFCPISLWHECFF [Phage-151] | 1.58 | 0.129
MDWCPKYLWDKCFH [Phage-152] | 1.54 | 0.109
MHWCPLHLWNECYH [Phage-155] | 1.37 | 0.113
MDWCPKHLWHQCFH [Phage-156] | 1.35 | 0.108
MDWCPRSLWSYCFH [Phage-157] | 1.33 | 0.152
MDWCPRYLWTECFF [Phage-158] | 1.26 | 0.244
MAWCPMNLWDQCFF [Phage-159] | 1.2 | 0.145
MHWCPRALWHECFN [Phage-160] | 1.18 | 0.144
MNWCPTDLWHECFN [Phage-162] | 1.09 | 0.095
MDWCPRNMWTVCFL [Phage-211] | 1.12 | –
